Laboratory results as given in patent US20180155451A1 (published 2018).

Legend:
[1] = molecular target: T1, FcγRIIb (human, UniProt P31994 43-217); assay: SPR (Biacore), relative binding vs GpH7-A5/GpH7-B3/GpL16-k0
T1 construct: extracellular domain; also called 2b
T1 sequence (looked up): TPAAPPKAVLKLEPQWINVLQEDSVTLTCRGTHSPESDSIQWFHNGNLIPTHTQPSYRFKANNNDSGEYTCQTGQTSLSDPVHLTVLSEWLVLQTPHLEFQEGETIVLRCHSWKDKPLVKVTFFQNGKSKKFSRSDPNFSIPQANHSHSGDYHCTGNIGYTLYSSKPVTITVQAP
Method: (§1) The heterodimerized antibodies He Abs in which one of the H chains was introduced with an alteration were assayed for their binding activities to each activating FcγR and inhibitory FcγR according to the method described in Example 4. […] The activating FcγRs in FIGS. 26, 27, 28, and 29 are FcγRIa, FcγRIIa (R), FcγRIIa (H), and FcγRIIIa, respectively.
(§2) Analysis of interaction between objective antibody and the FcγR was carried out using Biacore T100 (GE Healthcare). HBS-EP+ (GE Healthcare) was used as the running buffer, and the measurement temperature was set to 25° C. Chips produced by immobilizing the antigen peptide by the amine coupling method to a Series S Sencor Chip CM5 (GE Healthcare), or alternatively, chips produced by allowing preliminarily biotinylated antigen peptides to interact with and immobilize onto a Series S Sensor Chip SA (certified) (GE Healthcare) were used. Antibodies of interest were captured onto an antigen peptide-immobilized chip, and allowed to interact to each FcγR diluted with running buffer. To regenerate and repeatedly use the chip, the antibodies captured on the chip were washed off by reacting 10 mM glycine-HCl, pH 1.5.

[2] = molecular target: T2, FcγRIa extracellular domain with C-terminal His tag (human, UniProt P12314 16-292); assay: SPR (Biacore), antibody captured on antigen peptide chip, FcγR as analyte; relative binding
T2 construct: extracellular domain; soluble receptor expressed in FreeStyle293 cells, used as analyte in Biacore; also called FcgRI; 1a; not shown: His tag attached to the C terminus

[3] = molecular target: T3, FcγRIIb extracellular domain with C-terminal His tag (human, UniProt P31994 43-217); assay: as above
T3 construct: extracellular domain; soluble receptor expressed in FreeStyle293 cells, used as analyte in Biacore; also called FcgRIIb; 2b; not shown: His tag attached to the C terminus
T3 sequence (looked up): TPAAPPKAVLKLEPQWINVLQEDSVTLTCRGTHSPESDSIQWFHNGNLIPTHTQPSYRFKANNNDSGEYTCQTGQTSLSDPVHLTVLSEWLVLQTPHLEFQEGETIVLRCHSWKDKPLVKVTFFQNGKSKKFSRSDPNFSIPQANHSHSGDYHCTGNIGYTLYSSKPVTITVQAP

[4] = molecular target: T4, FcγRIIa H (human, UniProt P12318 34-217); assay: SPR (Biacore), relative binding vs GpH7-A5/GpH7-B3/GpL16-k0
T4 construct: extracellular domain; also called FcγRIIa type H; 2aH
T4 sequence (looked up): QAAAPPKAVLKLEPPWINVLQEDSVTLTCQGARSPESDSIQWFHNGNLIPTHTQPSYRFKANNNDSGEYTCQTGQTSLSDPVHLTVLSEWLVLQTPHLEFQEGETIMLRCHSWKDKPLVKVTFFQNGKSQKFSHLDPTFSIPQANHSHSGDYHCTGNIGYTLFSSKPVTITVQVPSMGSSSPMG
Method: as §1, §2

T2 sequence (P12314 16-292): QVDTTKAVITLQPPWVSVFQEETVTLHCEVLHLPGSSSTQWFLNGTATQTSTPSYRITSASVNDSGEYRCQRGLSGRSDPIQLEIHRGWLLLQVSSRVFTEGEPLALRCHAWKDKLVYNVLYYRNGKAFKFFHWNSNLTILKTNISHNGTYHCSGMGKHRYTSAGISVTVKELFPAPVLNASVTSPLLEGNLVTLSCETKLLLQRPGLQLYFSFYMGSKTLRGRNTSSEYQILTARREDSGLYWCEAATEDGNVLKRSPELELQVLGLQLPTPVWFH

B1: GpH7-A5/GpH7-B3 variant S267_11K/GpL16-k0 (antibody, human IgG1, kappa)
heavy 1: not shown
heavy 2: not shown
light: DIVMTQSPLSLPVTPGEPASISCQASESLVHSNRNTYLHWYLQKPGQSPQLLIYKVSNRFSGVPDRFSGSGSGTDFTLKISRVEAEDVGVYYCSQNTHVPPTFGQGTKVEIERTVAAPSVFIFPPSDEQLKSGTASVVCLLNNFYPREAKVQWKVDNALQSGNSQESVTEQDSKDSTYSLSSTLTLSKADYEKHKVYACEVTHQGLSSPVTKSFNRGEC
notes: heterodimerized IgG1, mutation in one H chain only; also called He Ab
Question: For B1, which He/Con_2b [1] is on record?
Answer: The He/Con_2b was 12.2 % of control He Ab (=100).

B2: GpH7-A5/GpH7-B3 variant S324_08L/GpL16-k0 (antibody, human IgG1, kappa)
heavy 1: not shown
heavy 2: not shown
light: DIVMTQSPLSLPVTPGEPASISCQASESLVHSNRNTYLHWYLQKPGQSPQLLIYKVSNRFSGVPDRFSGSGSGTDFTLKISRVEAEDVGVYYCSQNTHVPPTFGQGTKVEIERTVAAPSVFIFPPSDEQLKSGTASVVCLLNNFYPREAKVQWKVDNALQSGNSQESVTEQDSKDSTYSLSSTLTLSKADYEKHKVYACEVTHQGLSSPVTKSFNRGEC
notes: heterodimerized anti-glypican-3 IgG1; alteration in the GpH7-B3 chain only; also called He Ab
Question: What does the source list for B2?
Answer: He/Con_1a [2]: 103 % of control GpH7-A5/GpH7-B3/GpL16-k0 (=100); He/Con_2b [3]: 89.6 % of control GpH7-A5/GpH7-B3/GpL16-k0 (=100)

B3: GpH7-A5/GpH7-B3 variant S324_19Q/GpL16-k0 (antibody, human IgG1, kappa)
heavy 1: not shown
heavy 2: not shown
light: DIVMTQSPLSLPVTPGEPASISCQASESLVHSNRNTYLHWYLQKPGQSPQLLIYKVSNRFSGVPDRFSGSGSGTDFTLKISRVEAEDVGVYYCSQNTHVPPTFGQGTKVEIERTVAAPSVFIFPPSDEQLKSGTASVVCLLNNFYPREAKVQWKVDNALQSGNSQESVTEQDSKDSTYSLSSTLTLSKADYEKHKVYACEVTHQGLSSPVTKSFNRGEC
notes: as for B2
Question: How did the He/Con_1a [2] turn out when B3 was run?
Answer: The He/Con_1a was 112 % of control GpH7-A5/GpH7-B3/GpL16-k0 (=100).

Question: And the He/Con_2b [3]?
Answer: Its He/Con_2b is 66.8 % of control GpH7-A5/GpH7-B3/GpL16-k0 (=100).

B4: GpH7-A5/GpH7-B3 variant S324_14T/GpL16-k0 (antibody, human IgG1, kappa)
heavy 1: not shown
heavy 2: not shown
light: DIVMTQSPLSLPVTPGEPASISCQASESLVHSNRNTYLHWYLQKPGQSPQLLIYKVSNRFSGVPDRFSGSGSGTDFTLKISRVEAEDVGVYYCSQNTHVPPTFGQGTKVEIERTVAAPSVFIFPPSDEQLKSGTASVVCLLNNFYPREAKVQWKVDNALQSGNSQESVTEQDSKDSTYSLSSTLTLSKADYEKHKVYACEVTHQGLSSPVTKSFNRGEC
notes: as for B2
Question: For B4, which He/Con_1a [2] is on record?
Answer: The He/Con_1a was 121 % of control GpH7-A5/GpH7-B3/GpL16-k0 (=100).

Question: And the He/Con_2b [3]?
Answer: Its He/Con_2b is 88.4 % of control GpH7-A5/GpH7-B3/GpL16-k0 (=100).

B5: GpH7-A5/GpH7-B3 variant S324_16H/GpL16-k0 (antibody, human IgG1, kappa)
heavy 1: not shown
heavy 2: not shown
light: DIVMTQSPLSLPVTPGEPASISCQASESLVHSNRNTYLHWYLQKPGQSPQLLIYKVSNRFSGVPDRFSGSGSGTDFTLKISRVEAEDVGVYYCSQNTHVPPTFGQGTKVEIERTVAAPSVFIFPPSDEQLKSGTASVVCLLNNFYPREAKVQWKVDNALQSGNSQESVTEQDSKDSTYSLSSTLTLSKADYEKHKVYACEVTHQGLSSPVTKSFNRGEC
notes: as for B2
Question: With B5 as the binder, how does the He/Con_1a [2] read?
Answer: The He/Con_1a was 113 % of control GpH7-A5/GpH7-B3/GpL16-k0 (=100).

Question: And the He/Con_2b [3]?
Answer: The He/Con_2b was 83.5 % of control GpH7-A5/GpH7-B3/GpL16-k0 (=100).

B6: GpH7-A5/GpH7-B3 variant S267_12R/GpL16-k0 (antibody, human IgG1, kappa)
heavy 1: not shown
heavy 2: not shown
light: DIVMTQSPLSLPVTPGEPASISCQASESLVHSNRNTYLHWYLQKPGQSPQLLIYKVSNRFSGVPDRFSGSGSGTDFTLKISRVEAEDVGVYYCSQNTHVPPTFGQGTKVEIERTVAAPSVFIFPPSDEQLKSGTASVVCLLNNFYPREAKVQWKVDNALQSGNSQESVTEQDSKDSTYSLSSTLTLSKADYEKHKVYACEVTHQGLSSPVTKSFNRGEC
notes: as for B1
Question: How did the He/Con_2b [1] turn out when B6 was run?
Answer: The He/Con_2b was 11.3 % of control He Ab (=100).

B7: GpH7-A5/GpH7-B3 variant S324_09D/GpL16-k0 (antibody, human IgG1, kappa)
heavy 1: not shown
heavy 2: not shown
light: DIVMTQSPLSLPVTPGEPASISCQASESLVHSNRNTYLHWYLQKPGQSPQLLIYKVSNRFSGVPDRFSGSGSGTDFTLKISRVEAEDVGVYYCSQNTHVPPTFGQGTKVEIERTVAAPSVFIFPPSDEQLKSGTASVVCLLNNFYPREAKVQWKVDNALQSGNSQESVTEQDSKDSTYSLSSTLTLSKADYEKHKVYACEVTHQGLSSPVTKSFNRGEC
notes: as for B2
Question: With B7 as the binder, how does the He/Con_1a [2] read?
Answer: Its He/Con_1a is 104 % of control GpH7-A5/GpH7-B3/GpL16-k0 (=100).

Question: And the He/Con_2b [3]?
Answer: Its He/Con_2b is 85.8 % of control GpH7-A5/GpH7-B3/GpL16-k0 (=100).

B8: GpH7-A5/GpH7-B3 variant S324_11K/GpL16-k0 (antibody, human IgG1, kappa)
heavy 1: not shown
heavy 2: not shown
light: DIVMTQSPLSLPVTPGEPASISCQASESLVHSNRNTYLHWYLQKPGQSPQLLIYKVSNRFSGVPDRFSGSGSGTDFTLKISRVEAEDVGVYYCSQNTHVPPTFGQGTKVEIERTVAAPSVFIFPPSDEQLKSGTASVVCLLNNFYPREAKVQWKVDNALQSGNSQESVTEQDSKDSTYSLSSTLTLSKADYEKHKVYACEVTHQGLSSPVTKSFNRGEC
notes: as for B2
Question: Which results are given for B8?
Answer: He/Con_1a [2]: 102 % of control GpH7-A5/GpH7-B3/GpL16-k0 (=100); He/Con_2b [3]: 68.6 % of control GpH7-A5/GpH7-B3/GpL16-k0 (=100)

B9: GpH7-A5/GpH7-B3 variant A327_07I/GpL16-k0 (antibody, human IgG1, kappa)
heavy 1: not shown
heavy 2: not shown
light: DIVMTQSPLSLPVTPGEPASISCQASESLVHSNRNTYLHWYLQKPGQSPQLLIYKVSNRFSGVPDRFSGSGSGTDFTLKISRVEAEDVGVYYCSQNTHVPPTFGQGTKVEIERTVAAPSVFIFPPSDEQLKSGTASVVCLLNNFYPREAKVQWKVDNALQSGNSQESVTEQDSKDSTYSLSSTLTLSKADYEKHKVYACEVTHQGLSSPVTKSFNRGEC
notes: as for B1
Question: For B9, which He/Con_2aH [4] is on record?
Answer: Its He/Con_2aH is 58.4 % of control He Ab (=100).

Question: And the He/Con_2b [1]?
Answer: Its He/Con_2b is 127 % of control He Ab (=100).
